According to WO2012119989A2 (dated 2012):
Numbering of substitutions follows the chain as printed.

T1: Cell adhesion molecule-1 (CADM1), human, on the cell surface (human) (UniProt Q9BY67)
T1 sequence (looked up): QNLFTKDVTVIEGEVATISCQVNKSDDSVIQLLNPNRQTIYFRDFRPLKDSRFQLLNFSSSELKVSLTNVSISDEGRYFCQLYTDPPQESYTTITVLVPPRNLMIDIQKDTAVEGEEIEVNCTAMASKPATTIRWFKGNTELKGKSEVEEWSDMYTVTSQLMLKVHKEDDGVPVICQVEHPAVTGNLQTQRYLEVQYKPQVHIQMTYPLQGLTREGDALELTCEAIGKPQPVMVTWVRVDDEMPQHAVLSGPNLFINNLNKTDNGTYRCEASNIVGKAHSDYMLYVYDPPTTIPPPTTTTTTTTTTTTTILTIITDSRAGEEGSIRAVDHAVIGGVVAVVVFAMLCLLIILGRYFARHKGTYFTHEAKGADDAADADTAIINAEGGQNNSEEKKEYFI

T2: CADM1 extracellular domain expressed by the CHO-Flpln CADM1 cell line (human) (UniProt Q9BY67)
T2 sequence: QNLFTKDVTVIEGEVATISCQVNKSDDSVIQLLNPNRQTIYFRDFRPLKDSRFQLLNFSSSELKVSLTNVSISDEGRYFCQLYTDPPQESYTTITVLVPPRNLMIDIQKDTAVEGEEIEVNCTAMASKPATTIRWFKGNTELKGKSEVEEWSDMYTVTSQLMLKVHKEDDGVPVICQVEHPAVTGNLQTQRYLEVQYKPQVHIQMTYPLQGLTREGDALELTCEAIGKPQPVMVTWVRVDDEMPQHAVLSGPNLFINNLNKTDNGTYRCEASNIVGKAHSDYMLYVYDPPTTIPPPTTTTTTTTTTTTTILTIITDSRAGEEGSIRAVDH

T3: Cell adhesion molecule-1 (CADM1), human, on the cell surface (human, UniProt Q9BY67 45-442)
T3 construct: whole, on cells; also called TSLC1; IGSF4
T3 sequence (looked up): T1 sequence (looked up)

T4: CADM2, human, on transfected CHO cells (human, UniProt Q8N3J6 25-435)
T4 construct: whole, on cells
T4 sequence (looked up): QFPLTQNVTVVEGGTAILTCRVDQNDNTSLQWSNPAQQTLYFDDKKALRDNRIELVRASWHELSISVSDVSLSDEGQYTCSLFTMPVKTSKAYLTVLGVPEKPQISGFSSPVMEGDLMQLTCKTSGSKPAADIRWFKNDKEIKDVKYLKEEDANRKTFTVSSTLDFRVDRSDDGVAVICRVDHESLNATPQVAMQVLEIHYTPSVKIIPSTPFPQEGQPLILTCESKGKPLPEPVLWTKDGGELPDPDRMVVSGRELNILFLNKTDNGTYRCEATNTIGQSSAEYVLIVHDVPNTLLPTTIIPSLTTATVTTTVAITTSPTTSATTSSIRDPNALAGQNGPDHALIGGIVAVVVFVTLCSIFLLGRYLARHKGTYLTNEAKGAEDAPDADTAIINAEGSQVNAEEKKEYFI

T5: CADM3, human, on transfected CHO cells (human, UniProt Q8N126 25-398)
T5 construct: whole, on cells; also called CADSV13 (OCR)
T5 sequence (looked up): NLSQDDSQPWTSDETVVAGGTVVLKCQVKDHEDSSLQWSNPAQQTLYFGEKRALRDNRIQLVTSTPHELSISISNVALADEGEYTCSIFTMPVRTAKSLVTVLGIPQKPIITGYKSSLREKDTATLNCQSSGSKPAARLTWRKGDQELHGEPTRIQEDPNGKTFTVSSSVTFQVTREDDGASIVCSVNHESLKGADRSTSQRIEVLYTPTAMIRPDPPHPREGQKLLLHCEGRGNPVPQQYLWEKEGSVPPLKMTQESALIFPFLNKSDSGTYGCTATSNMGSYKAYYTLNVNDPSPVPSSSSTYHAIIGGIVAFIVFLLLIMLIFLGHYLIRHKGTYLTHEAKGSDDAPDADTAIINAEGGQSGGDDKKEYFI

T6: CADM4, human, on transfected CHO cells (human, UniProt Q8NFZ8 21-388)
T6 construct: whole, on cells; also called CAD 4
T6 sequence (looked up): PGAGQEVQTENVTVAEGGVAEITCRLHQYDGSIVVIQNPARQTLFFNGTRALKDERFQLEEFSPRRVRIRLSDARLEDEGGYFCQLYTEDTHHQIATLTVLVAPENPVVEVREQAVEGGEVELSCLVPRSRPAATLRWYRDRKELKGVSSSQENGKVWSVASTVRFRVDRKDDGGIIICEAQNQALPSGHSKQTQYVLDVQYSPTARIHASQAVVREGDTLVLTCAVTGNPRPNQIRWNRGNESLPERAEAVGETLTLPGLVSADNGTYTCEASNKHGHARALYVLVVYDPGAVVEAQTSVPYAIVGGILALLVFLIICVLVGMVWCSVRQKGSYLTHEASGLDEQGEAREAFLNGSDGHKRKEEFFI

B1: Antibody-2 (antibody, V domains shown)
VH: EVQLLESGGGLVQPGGSLRLSCAASGFTFSKYEMVWVRQAPGKGLEWVSYIVPSGGATLYADSVKGRFTISRDNSKNTLYLQMNSLRAEDTAVYYCARVKAGVFDYWGQGTL
VL: QYELTQPPSVSVSPGQTARITCSGDRLGETYVSWYQQKPGQSPVLVIFEDNKRPSGIPERFSGSNSGNTATLTVSGTRAMDEADYYCQAWVGSTPFVFGTGTKVTVL
B2: AB2 NF (antibody, V domains shown)
VH: B1 VH
VL: B1 VL
B3: Antibody-1 (antibody, V domains shown)
VH: EVQLLESGGGLVQPGGSLRLSCAASGFTFSFYPMQWVRQAPGKGLEWVSSIGSSGGYTKYADSVKGRFTISRDNSKNTLYLQMNSLRAEDTAVYYCTRDRWYFDLWGRGTL
VL: QSELTQDPAVSVALGHTVKITCQGDTFRTYYASWYQQKPGQAPLLVVYGENKRPSGIPDRFSGSTSGNTASLTITGAQAEDEADYYCHSRDNSGHLHVFGGGTKVTVL
B4: Antibody-10 (antibody, V domains shown)
VH: B3 VH with F31M, P33T, Q35S, G52W, Y57K, K59S, T97A, R98K, D99E, R100S
VL: QYELTQDPAVSVALGQTVRITCQGHSLRSYYATWYQQKPGQAPVLVMYGENNRPSGIPDRFSGSSSGNTASLTITGAQAEDEADYYCNSRDNSGNHLVFGGGTNLTVL
notes: also called AB10; AB 1 0
B5: Antibody-3 (antibody, V domains shown)
VH: B3 VH with F31R, Q35Y, G52S, Y57L, K59H, T97A, D99G, R100D
VL: QYELTQDPAVSVALGQTVRITCQGDSLRTYYASWYQQRPGQAPVLVIYGDNDRPSGIPDRFSGSTSRNTASLTITGAQAEDEAHYYCNSRDSSGNHIFATGTKVTVL
notes: also called AB3; AB 3
B6: anti-CADM1 AB-10, mouse IgG2a isotype (antibody, V domains shown)
VH: B3 VH with F31M, P33T, Q35S, G52W, Y57K, K59S, T97A, R98K, D99E, R100S
VL: B4 VL
notes: also called AB-10 mouse lgG2a

Columns and labels:
[1] = target: T1, Cell adhesion molecule-1 (CADM1), human, on the cell surface (human); assay: flow cytometry, DU145 cells
[2] = target: T1, Cell adhesion molecule-1 (CADM1), human, on the cell surface (human); assay: flow cytometry, Caco-2 colon cancer cells, antibody 10ug/ml
[3] = target: T1, Cell adhesion molecule-1 (CADM1), human, on the cell surface (human); assay: flow cytometry, MDA-MB-435S melanoma cells, antibody 10ug/ml
[4] = target: T1, Cell adhesion molecule-1 (CADM1), human, on the cell surface (human); assay: flow cytometry, Lovo colon cancer cells, antibody 10ug/ml
[5] = target: T1, Cell adhesion molecule-1 (CADM1), human, on the cell surface (human); assay: flow cytometry, LnCaP prostate cancer cells, antibody 10ug/ml
[6] = target: T2, CADM1 extracellular domain expressed by the CHO-Flpln CADM1 cell line (human); assay: flow cytometry, CHO-Flpln CADM1 cells
[7] = target: T2, CADM1 extracellular domain expressed by the CHO-Flpln CADM1 cell line (human); assay: flow cytometry, CHO-Flpln CADM1 cells (second table of Example 15)
[8] = target: T1, Cell adhesion molecule-1 (CADM1), human, on the cell surface (human); assay: flow cytometry, SW480 colon cancer cells, antibody 10ug/ml
[9] = target: T1, Cell adhesion molecule-1 (CADM1), human, on the cell surface (human); assay: flow cytometry, DU145 prostate cancer cells, antibody 10ug/ml
[10] = target: T1, Cell adhesion molecule-1 (CADM1), human, on the cell surface (human); assay: flow cytometry, LnCaP cells
[11] = target: T1, Cell adhesion molecule-1 (CADM1), human, on the cell surface (human); assay: cell-based or functional assay
[12] = target: T1, Cell adhesion molecule-1 (CADM1), human, on the cell surface (human); assay: flow cytometry, SKMEL28 melanoma cells, antibody 10ug/ml
[13] = target: T1, Cell adhesion molecule-1 (CADM1), human, on the cell surface (human); assay: flow cytometry, LnCaP cells (second table of Example 15)
[14] = target: T3, Cell adhesion molecule-1 (CADM1), …; assay: flow cytometry titration, A375 melanoma cells, human IgG1 isotype
[15] = target: T4, CADM2, human, on transfected CHO cells; assay: flow cytometry, CHO cells transiently transfected with CADM2
[16] = target: T5, CADM3, human, on transfected CHO cells; assay: flow cytometry, CHO cells transiently transfected with CADM3
[17] = target: T6, CADM4, human, on transfected CHO cells; assay: flow cytometry, CHO cells transiently transfected with CADM4
[18] = target: T3, Cell adhesion molecule-1 (CADM1), …; assay: flow cytometry titration, SKOV3 ovary cancer cells
[19] = target: T3, Cell adhesion molecule-1 (CADM1), …; assay: flow cytometry titration, A375 melanoma cells, mouse IgG2a isotype

| Binder | percent of cells bound [1] | percent of cells bound [6] | percent of cells bound [7] | % of fluorescence cells [9] | percent of cells bound [10] | percent of cells bound [13] | binding result [15] | binding result [16] | binding result [17] | further results |
| --- | --- | --- | --- | --- | --- | --- | --- | --- | --- | --- |
| B1 | 99.5% | 99.9% | 98.3% | 99.5% | 99.5% | 98.6% |  |  |  | % of fluorescence cells [2]: 99.6%; % of fluorescence cells [3]: 100%; % of fluorescence cells [4]: 99.2%; % of fluorescence cells [5]: 98.6%; % of fluorescence cells [8]: 100%; % cell viability at 100 nM, Hum-ZAP assay, A375 melanoma cells [11]: 26.2%; % cell viability at 100 nM, Hum-ZAP assay, Caco-2 colon cancer cells [11]: 55.9%; % cell viability at 100 nM, Hum-ZAP assay, Lovo colon cancer cells [11]: 34.3%; % cell viability at 100 nM, Hum-ZAP assay, MDA-MB-435S melanoma cells [11]: 27.3%; % cell viability at 100 nM, Hum-ZAP assay, SKMEL28 melanoma cells [11]: 36.7%; % cell viability at 100 nM, Hum-ZAP assay, SW480 colon cancer cells [11]: 20.6%; % of viability, Hum-ZAP internalization assay, positive CADM1 cell line, antibody 10-6 M [11]: 85.1%; % of viability, Hum-ZAP internalization assay, positive CADM1 cell line, antibody 10-7 M [11]: 29.3%; % of viability, Hum-ZAP internalization assay, positive CADM1 cell line, antibody 10-8 M [11]: 14%; % of fluorescence cells [12]: 100% |
| B2 |  |  | 98.5% |  |  | 96.8% |  |  |  |  |
| B3 | 99% | 99.8% |  | 99% | 99.6% |  |  |  |  | % cell viability at 100 nM, Hum-ZAP assay, DU145 prostate cancer cells [11]: 60.6% |
| B4 |  | 99.8% | 98.7% |  |  |  | no binding (tested: 10ug/ml (protocol of Example 19)) | no binding (tested: 10ug/ml (protocol of Example 19)) | no binding (tested: 10ug/ml (protocol of Example 19)) | EC50 [14]: 1.26 nM |
| B5 |  | 99.7% |  |  |  |  | no binding (tested: 10ug/ml (protocol of Example 19)) | no binding (tested: 10ug/ml (protocol of Example 19)) | no binding (tested: 10ug/ml (protocol of Example 19)) | EC50 [18]: 1 nM |
| B6 |  |  |  |  |  |  |  |  |  | EC50 [19]: 0.76 nM |
